We go through eleven molecules from patent publication US20240166738A1 (priority 2021, published 2024).

The labels stand for the following.
B1: TM-76: anti-TMEM106B monoclonal antibody; VH SEQ ID NO: 481, VL SEQ ID NO: 516 (antibody, V domains shown)
VH: QVTLKESGPGILQPSQTLSLTCSFSGFSLSTSGMGVSWIRKPSGKGLEWLAHIFWDDDKRYNLFLKSRLTVSKDTSSNQVFLMITSVDTTDTATYYCARMGRQRDYFDYWGQGTSLTVSS
VL: QIILTQSPAIMSASLGEEITLTCSASLSISYVHWYQQKSGASPKLLIYGTSNLASGVPSRFSGSGSGTFYSLTISSVEAEDAADYYCHQWSIYRTFGGGTKLEMK
modifications: Variable Heavy Chain -- TM-76; Variable Light Chain -- TM-76
B2: TM-32: anti-TMEM106B monoclonal antibody; CDR-H1-3 SEQ ID NO: 13, 63, 106; CDR-L1-3 SEQ ID NO: 145, 160, 200 (antibody, V domains shown)
VH: EVQLQQSGAELVRPGASVRLSCIASGFNIKDYYMYWVKQRPEQGLEWIGRIDPEDGDTEYVPKFQGKATMTADTSSNTAYLQLSSLTSEDIGVYYCTTRTWDLYYAVDNWGQGTSVTVSS
VL: DVLMTQTPLSLPVSLGDQASISCRSSQNIVHSNGNTYLEWYLQKPGQSPKLLIDKVSNRFSGVPDRFSGSGSGTDFTLKISRVEAEDLGIYYCFQGSHVPFTFGSGTKLEIK
B3: TM-35: anti-TMEM106B monoclonal antibody; CDR-H1-3 SEQ ID NO: 24, 66, 109; CDR-L1-3 SEQ ID NO: 148, 160, 194 (antibody, V domains shown)
VH: QVQLQQSGPELVRPGTSVKISCKAPGYTFTRHWMQWVRQRPGQGLEWIGEILPGSNNIYYNEKVKGKATLTVDTSSSTSYMQLSSLTSEDSAVYFCARSLYDYDGVFAYWGQGTLVTVSA
VL: B2 VL with T7I, N28S, S32R, D54Y, I90V, F101Y, S105G
B4: TM-54: anti-TMEM106B monoclonal antibody; VH SEQ ID NO: 464, VL SEQ ID NO: 500 (antibody, V domains shown)
VH: QVQMQQSGPVLVKPGASVTLSCKASGYTFTTYDLNWVKQRPGQGLEWIGWIYPRGGSTEYNEKFKGKATLTVDTSSSTAYMELHSLTSEDSAVYFCAKYSIYAMDYWGQGTSVTVSS
VL: B2 VL with N28S, S32G, D54Y, I90V, F101W, S105G, I111M
modifications: Variable Heavy Chain -- TM-54; Variable Light Chain -- TM-54
B5: TM-60: anti-TMEM106B monoclonal antibody; VH SEQ ID NO: 413, VL SEQ ID NO: 502 (antibody, V domains shown)
VH: QVQLQQSGPELVKPGASVKLSCKASGYTFTSYDINWVKQRPGQGLEWIGWIYPRDGNTQYIEKLKGKATLTVDTSSSTAYMELHSLTSEDSAVYFCARWIFYAMDYWGQGTSVTVSS
VL: B2 VL with N28S, S32G, D54Y, I90V, V99L, F101Y, S105G
modifications: Variable Heavy Chain -- TM-48, TM-60; Variable Light Chain -- TM-60
B6: TM-48: anti-TMEM106B monoclonal antibody; CDR-H1-3 SEQ ID NO: 32, 74, 116; CDR-L1-3 SEQ ID NO: 155, 160, 218 (antibody, V domains shown)
VH: B5 VH
VL: B2 VL with D17N, N28S, S32G, D54Y, I90V, V99L, F101Y, S105G
B7: TM-61: anti-TMEM106B monoclonal antibody; VH SEQ ID NO: 467, VL SEQ ID NO: 503 (antibody, V domains shown)
VH: QVQLQQSGAELAKPGASVKLSCKASGYTFTNYWMNWVKQRPGQGLEWIGYINPSSDYTKYNQNFKDKATLTADKSSSTAYMQLNSLTYEDSAVYYCTRWGGSRSYWYFDVWGAGTTVTVSS
VL: DIVMTQSPSSLSASAGEKVTMSCKSSQSLLNSGNQKNYLAWYQQKPGQSPKLLIYGASTRESGVPDRFTGSGSGTDFTLTISSVQAEDLAVYYCQNDSNYPFTFGGGTKLEMK
modifications: Variable Heavy Chain -- TM-61; Variable Light Chain -- TM-61
B8: TM-25: anti-TMEM106B monoclonal antibody; CDR-H1-3 SEQ ID NO: 10, 57, 100; CDR-L1-3 SEQ ID NO: 137, 168, 205 (antibody, V domains shown)
VH: EVQLVESGGDLVKPGGSLRLSCAASGFTFSGYGMSWIRQTPDKRLEWVATISSGGRYTVYPDSVKGRFTMSRDNVKNTLYLQMSSLKSEDTALYYCARDNFYSYAMDYWGLGTSVTVSA
VL: DIVMTQAAFSNPVTLGTSASISCRSSKSLLHSNGITYLFWYLQKPGQSPQLLIYQMSNLASGVPDRFSSSGSGTDFTLRISRVEAEDVGVYYCAQNLELWTFGGGTKLEIK
B9: TM-3: anti-TMEM106B monoclonal antibody; CDR-H1-3 SEQ ID NO: 4, 37, 80; CDR-L1-3 SEQ ID NO: 122, 162, 186 (antibody, V domains shown)
VH: QVTLKESGPGIVQPSQTLSLTCSFSGFSLNTLGRGVGWIRQPSGKGLEWLAKIWWNDDKFYYPALKSRLTISKDTSKNQIFLKIANVDTADSATYYCARIAGGTGAAYWGQGTTLTVSS
VL: DIVMTQAAFSNPVTLGTSASISCRSSKSLLHSNGITYLYWYLQKPGQSPQLLISQMSSLASGVPDRFSSGGSGTDFTLRISRVEAEDVGVFYCAQNLELPWTFGGGTKLELK
B10: TM-9: anti-TMEM106B monoclonal antibody; CDR-H1-3 SEQ ID NO: 10, 43, 86; CDR-L1-3 SEQ ID NO: 122, 168, 186 (antibody, V domains shown)
VH: EVQLVESGGDLVKPGGSLKLSCVASGFTFSGYGMSWVRQTPDKRLEWVATISSGSFYIYYPDSVKGRLTVSRDNAKNTLYLQMSSLKSEDTAIYYCARQNFYYGCEDYWGQGTTLTVSS
VL: B9 VL with S54Y, S58N, D65N, G70S, F91Y, L111I
B11: TM-24: anti-TMEM106B monoclonal antibody; CDR-H1-3 SEQ ID NO: 12, 45, 88; CDR-L1-3 SEQ ID NO: 140, 170, 204 (antibody, V domains shown)
VH: QVQLKQSGPGQVQPSQSLSITCTVSGFSLSDYGVHWVRQSPGKGLEWLGVIWNNGNTDYNAAFISRLSINKDNSKSQVFFKMTSLQADDTAIYYCVRSLRPLHFDYWGQGTTVTVSS
VL: DIVMTQSPSSLTMSVGQKVTMNCKSSQSLLNSNNQQNYLAWYQQKPGQSPKLLVYFASIRESGVPDRFIGSGSGTDFTLTINSVQAEDLADYFCQQHYSTPFTFGSGTKLEIR

Residue numbers refer to the chain shown, from its start.

Chain of GST-TMEM106B (truncated, comprising amino acids 122-210 of SEQ ID NO:1) (Q9NUM4 122-210): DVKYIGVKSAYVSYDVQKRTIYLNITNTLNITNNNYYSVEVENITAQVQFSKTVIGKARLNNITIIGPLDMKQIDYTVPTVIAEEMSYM

One assay addresses GST-TMEM106B (truncated, comprising amino acids 122-210 of SEQ ID NO:1) (Homo sapiens, UniProt Q9NUM4). The experiment in a line: Pre-mix epitope binning of anti-TMEM106B antibodies (Carterra / Lake Pharma). In kind it is binding. Set-up: key to epitope bin: Bin 1: competes for binding to the same or overlapping TMEM106B region as the TM1, TM17, TM22, TM26, TM79, and/or TM82 antibodies; Bin 2: competes for binding to the same or overlapping TMEM106B region as the TM3, TM9, TM10, TM11, TM12, TM13, TM18, TM19, TM21, TM24, TM25, TM32, TM35, TM37, TM42, TM45, TM48, TM54, TM59, TM60, TM61, and/or TM76 antibodies; Bin 3: competes for binding to the same or overlapping TMEM106B region as the TM7, TM15, TM83, and/or TM84 antibodies; Bin 4: competes for binding to the same or overlapping TMEM106B region as the TMS, TM28, TM29, TM30, TM63, TM64, TM72, TM78, TM80, TM86, and/or TM88 antibodies; Bin 5: does not bind to a truncated TMEM106B comprising amino acids 122-210 of SEQ ID NO:1. The settings on record: competition for binding to truncated GST-TMEM106B (amino acids 122-210). The method, then:
(§1) Monoclonal anti-TMEM106B antibodies were immobilized to a CMD 50M chip (Xantec # SPMXCMD5OM lot# SCCMD50M0416). The running buffer was HBS-EP+ with 1 mg/mL BSA. The GST-TMEM106B (truncated, comprising amino acids 122-210 of SEQ ID NO:1) antigen was prepared at a final concentration of 55 nM (corresponding to 2 μg/mL) and mixed with the competing analyte anti-TMEM106B antibodies at a final concentration of 333 nM (corresponding to 50 μg/mL) or compared to a buffer control. Samples were injected for 5 minutes over the array and regenerated after every cycle with 1 minute of two parts Pierce IgG-Elution buffer (ThermoFisher Cat#21004) and 1 part of 10 mM Glycine, pH 2.0 (Carterra).
Anti-TMEM106B antibodies sorted into various competing bins and resulting binning profiles. […] Antibodies within Bin 3 or Bin 4 partially block Bin 2 antibodies.
as §1, with “SPMXCMD50M” for “SPMXCMD5OM”, “lmg/ml” for “1 mg/mL”, “(truncated)” for “(truncated, comprising amino acids 122-210 of SEQ ID NO:1)”, “μg/ml)” for “μg/mL)”
On to B1, for which the epitope bin result is reported as “Bin 2”.

As for B2, the epitope bin entry is “Bin 2”.

Take B3: the epitope bin result is recorded as “Bin 2”.

In the case of B4, the epitope bin result is “Bin 2”.

In the case of B5, the epitope bin result is listed as “Bin 2”.

On to B6, for which the epitope bin entry is listed as “Bin 2”.

Turning to B7, the epitope bin result is recorded as “Bin 2”.

In the case of B8, the epitope bin result is given as “Bin 2”.

For B9, the epitope bin result is “Bin 2”.

As to B10, the epitope bin result is given as “Bin 2”.

Regarding B11, the epitope bin result is given as “Bin 2”.

Staying with this assay, now noted: epitope bin number; pre-mix binning on truncated GST-TMEM106B.
On to B1, for which the “Binding Community/Bin” value was determined as 2.

B2: the “Binding Community/Bin” value is recorded as 2.

Turning to B3, the “Binding Community/Bin” value was 2.

On to B4, for which the “Binding Community/Bin” value is reported as 2.

As for B5, the “Binding Community/Bin” value came to 2.

With B6, the “Binding Community/Bin” value turned out to be 2.

In the case of B7, the “Binding Community/Bin” value is 2.

B8: the “Binding Community/Bin” value was 2.

For the molecule B9, the “Binding Community/Bin” value came to 2.

In the case of B10, the “Binding Community/Bin” value is 2.

Consider B11, for which the “Binding Community/Bin” value was determined as 2.
